Test results reported in the supplement of paper PMC10126150.
± gives the standard deviation of the averaged measurements.

Test system: ATP
Test: switch fluorescence ratio, 500 uM ATP over buffer (Cy3 cluster intensity, sum of 5 cycles each) (fold (ratio)); higher = stronger signal-on switching upon ATP binding; sequences stand for … in TCGTCGGCAGCGTCAGATGTGTATAAGAGACAGTTTTTTTTTTTTTTTTTTTTTTTTT…TC
Conditions: aptamer strand: ATP DNA aptamer (quencher-CACCTGGGGGAGTATTGCGGAGGAAGG + anchor), 100 nM annealed; ATP concentration: 500 uM
How it was run: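 Clusters with intensities outside 100-1000 RFU were excluded. The remaining Cy3-labelled switching-strand clusters on a modified Illumina MiSeq flow-cell had been annealed to 100 nM quencher-labelled ATP aptamer and imaged in selection buffer, then after 15 min with 500 uM ATP at 22 °C, for five cycles separated by NaOH stripping and re-annealing. The fluorescence ratio, averaged per switch-domain sequence, is each cluster's summed target-cycle Cy3 intensity over its summed buffer-cycle Cy3 intensity.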
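Note: ATP exposure 15 min at 22 °C before imaging.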

| Sequence | switch fluorescence ratio |
| --- | --- |
| ATGGATGGAG | 0.99 ± 0.013 |
| ATGGCAATTC | 2.51 ± 0.068 |
| ATGGCAGGG | 1.016 ± 0.0061 |
| ATGGCCTCGG | 1.02 ± 0.025 |
| ATGGCGAATT | 0.995 ± 0.073 |
| ATGGCGGGGA | 0.984 ± 0.052 |
| ATGGCTAGAA | 0.985 ± 0.026 |
| ATGGCTATTT | 0.9852 ± 0.0086 |
| ATGGCTGGCT | 1.04 ± 0.041 |
| ATGGCTGTTT | 0.972 ± 0.0012 |
| ATGGCTTAAG | 1.006 ± 0.0055 |
| ATGGGAAGGG | 1.01 ± 0.015 |
| ATGGGAGGTC | 0.97 ± 0.0071 |
| ATGGGATAAG | 0.998 ± 0.029 |
| ATGGGCGCAG | 0.99 ± 0.05 |
| ATGGGCGCGG | 0.9903 ± 0.0066 |
| ATGGGCGGCG | 0.993 ± 0.021 |
| ATGGGCTAGG | 0.9702 ± 0.0058 |
| ATGGGCTATT | 0.994 ± 0.038 |
| ATGGGGAAGC | 1.03 ± 0.058 |
| ATGGGGAGGT | 0.968 ± 0.025 |
| ATGGGGATTG | 0.983 ± 0.048 |
| ATGGGGCGTG | 0.974 ± 0.016 |
| ATGGGGGATG | 0.973 ± 0.028 |
| ATGGGGGATT | 1 ± 0.025 |

| Sequence | switch fluorescence ratio |
| --- | --- |
| ATGGGGGCAG | 1.03 ± 0.027 |
| ATGGGGGCGA | 0.978 ± 0.014 |
| ATGGGGGCGG | 1 ± 0.021 |
| ATGGGGGGGG | 1.01 ± 0.039 |
| ATGGGGGGTG | 1 ± 0.035 |
| ATGGGGGTA | 1.004 ± 0.002 |
| ATGGGGGTGG | 0.99 ± 0.0087 |
| ATGGGGTAGG | 0.995 ± 0.022 |
| ATGGGGTATG | 0.987 ± 0.024 |
| ATGGGGTATT | 0.989 ± 0.015 |
| ATGGGGTTGT | 0.966 ± 0.019 |
| ATGGGTATTT | 1.02 ± 0.035 |
| ATGGGTCTTT | 0.9811 ± 0.0016 |
| ATGGGTGCTT | 1.01 ± 0.039 |
| ATGGGTGGGT | 0.994 ± 0.034 |
| ATGGGTTATG | 0.999 ± 0.016 |
| ATGGGTTATT | 0.98 ± 0.045 |
| ATGGGTTGGA | 1.008 ± 0.0088 |
| ATGGGTTGGT | 0.981 ± 0.016 |
| ATGGGTTTGT | 1.02 ± 0.021 |
| ATGGTAGATA | 1.02 ± 0.0041 |
| ATGGTAGG | 0.9749 ± 0.0017 |
| ATGGTAGGCT | 0.98 ± 0.032 |
| ATGGTAGTTG | 0.985 ± 0.018 |
| ATGGTATCGT | 0.986 ± 0.018 |

| Sequence | switch fluorescence ratio |
| --- | --- |
| ATGGTCTCTT | 0.987 ± 0.013 |
| ATGGTCTGTT | 1 ± 0.036 |
| ATGGTGAGTT | 1 ± 0.015 |
| ATGGTGGATG | 0.9626 ± 0.0052 |
| ATGGTGGGTG | 1.03 ± 0.046 |
| ATGGTGTAGC | 0.986 ± 0.016 |
| ATGGTTAACT | 1.03 ± 0.016 |
| ATGGTTAAGG | 0.9812 ± 0.0085 |
| ATGGTTGGGA | 0.998 ± 0.024 |
| ATGGTTGTTG | 0.9628 ± 0.0034 |
| ATGGTTGTTT | 0.995 ± 0.02 |
| ATGGTTTAGA | 1.03 ± 0.031 |
| ATGGTTTGGC | 1 ± 0.049 |
| ATGTAACGTT | 1.006 ± 0.0088 |
| ATGTAAGCCC | 0.992 ± 0.022 |
| ATGTAAGGGG | 0.9951 ± 0.0039 |
| ATGTAATAA | 1.022 ± 0.0049 |
| ATGTAATAAT | 0.983 ± 0.027 |
| ATGTACAATT | 1.0917 ± 0.00014 |
| ATGTACAGGA | 1.05 ± 0.056 |
| ATGTACGGAT | 1.02 ± 0.059 |
| ATGTACGGGG | 1.04 ± 0.028 |
| ATGTACTACT | 1.07 ± 0.068 |
| ATGTACTCGC | 1.08 ± 0.031 |
| ATGTAGAGAT | 0.97 ± 0.016 |

| Sequence | switch fluorescence ratio |
| --- | --- |
| ATGTAGAGG | 0.988 ± 0.013 |
| ATGTAGAGGG | 1.01 ± 0.02 |
| ATGTAGGCCA | 1.04 ± 0.053 |
| ATGTAGTCGG | 0.978 ± 0.012 |
| ATGTATAGGG | 1 ± 0.0019 |
| ATGTATTATG | 0.956 ± 0.026 |
| ATGTATTGCG | 0.988 ± 0.044 |
| ATGTCATATG | 0.994 ± 0.031 |
| ATGTCCATTA | 0.994 ± 0.01 |
| ATGTCCGTGG | 0.99 ± 0.014 |
| ATGTCGAGGT | 1.01 ± 0.035 |
| ATGTCGATGG | 0.9908 ± 0.0065 |
| ATGTCGGATT | 1.002 ± 0.0021 |
| ATGTCGGGCT | 0.982 ± 0.042 |
| ATGTCTAAAA | 0.9887 ± 0.0065 |
| ATGTCTTTTG | 1.03 ± 0.022 |
| ATGTGACAGC | 0.955 ± 0.062 |
| ATGTGAGATA | 1.02 ± 0.015 |
| ATGTGATTGG | 1.01 ± 0.027 |
| ATGTGCAGGC | 0.969 ± 0.026 |
| ATGTGGATTG | 1.016 ± 0.009 |
| ATGTGGCCTG | 0.988 ± 0.056 |
| ATGTGGGGGC | 0.994 ± 0.03 |
| ATGTGGGGTG | 1.06 ± 0.053 |
| ATGTGGGTTA | 1.01 ± 0.022 |

| Sequence | switch fluorescence ratio |
| --- | --- |
| ATGTGGTAGC | 0.9523 ± 0.004 |
| ATGTGGTCTG | 0.9777 ± 0.0014 |
| ATGTGGTGTC | 1.02 ± 0.015 |
| ATGTGTAGTT | 0.992 ± 0.019 |
| ATGTGTCCT | 1.016 ± 0.0039 |
| ATGTGTCGTC | 1.01 ± 0.057 |
| ATGTGTCTGC | 1.04 ± 0.035 |
| ATGTGTCTGG | 0.998 ± 0.011 |
| ATGTGTGGT | 0.959 ± 0.023 |
| ATGTGTGGTT | 1.12 ± 0.15 |
| ATGTGTTCTG | 0.931 ± 0.031 |
| ATGTGTTGGG | 0.973 ± 0.032 |
| ATGTTAAATG | 1 ± 0.016 |
| ATGTTAAATT | 0.976 ± 0.014 |
| ATGTTAAGGA | 0.998 ± 0.012 |
| ATGTTAGACT | 1.021 ± 0.0071 |
| ATGTTAGGGA | 1.034 ± 0.0052 |
| ATGTTAGGGC | 0.975 ± 0.032 |
| ATGTTAGTGA | 0.979 ± 0.042 |
| ATGTTATATG | 1.004 ± 0.0036 |
| ATGTTCAAAG | 0.975 ± 0.017 |
| ATGTTCAAGA | 1.01 ± 0.015 |
| ATGTTCAGTG | 0.985 ± 0.03 |
| ATGTTCGGCC | 1.012 ± 0.01 |
| ATGTTGAGTG | 0.995 ± 0.031 |

| Sequence | switch fluorescence ratio |
| --- | --- |
| ATGTTGGGCG | 0.996 ± 0.052 |
| ATGTTGGGCT | 0.962 ± 0.018 |
| ATGTTGGTAC | 1.04 ± 0.02 |
| ATGTTGGTCG | 0.974 ± 0.028 |
| ATGTTGGTGT | 0.991 ± 0.045 |
| ATGTTTACTG | 1.033 ± 0.0082 |
| ATGTTTATTG | 0.998 ± 0.018 |
| ATGTTTCATT | 0.9727 ± 0.0052 |
| ATGTTTGAGG | 0.989 ± 0.029 |
| ATGTTTGGGG | 1.03 ± 0.084 |
| ATGTTTGTCT | 0.97 ± 0.039 |
| ATGTTTTAAA | 0.9756 ± 0.0086 |
| ATGTTTTTGT | 0.989 ± 0.042 |
| ATTAAAATGG | 1.02 ± 0.017 |
| ATTAAAGCCC | 1.02 ± 0.039 |
| ATTAAATCGG | 1.01 ± 0.016 |
| ATTAAATTAA | 1.034 ± 0.01 |
| ATTAAGAATT | 0.9986 ± 0.0027 |
| ATTAAGCATG | 1.004 ± 0.0088 |
| ATTAAGGGGG | 0.9982 ± 0.0069 |
| ATTAAGGGTT | 1.02 ± 0.025 |
| ATTAAGTGTA | 0.98 ± 0.019 |
| ATTAATAAAG | 0.9984 ± 0.0086 |
| ATTAATAGCT | 1.05 ± 0.0049 |
| ATTAATAGTG | 0.967 ± 0.028 |

| Sequence | switch fluorescence ratio |
| --- | --- |
| ATTAATGGGA | 0.9986 ± 0.0061 |
| ATTAATTAGA | 0.975 ± 0.041 |
| ATTAATTAGG | 0.989 ± 0.015 |
| ATTAATTTCT | 1 ± 0.024 |
| ATTAATTTTA | 1.02 ± 0.041 |
| ATTACCAATT | 2.24 ± 1.8 |
| ATTACCAGGT | 1.27 ± 0.048 |
| ATTACCTATA | 1.05 ± 0.044 |
| ATTACGGCAG | 1.02 ± 0.059 |
| ATTACTAGTT | 0.9996 ± 0.0035 |
| ATTACTCGCG | 1.05 ± 0.012 |
| ATTACTTTGC | 1.05 ± 0.021 |
| ATTAGAAAGC | 0.981 ± 0.039 |
| ATTAGAATGT | 1.02 ± 0.023 |
| ATTAGATGGT | 1.02 ± 0.024 |
| ATTAGCACGG | 0.997 ± 0.013 |
| ATTAGCAGCA | 1.05 ± 0.025 |
| ATTAGGATAG | 1 ± 0.054 |
| ATTAGGATTT | 0.998 ± 0.0097 |
| ATTAGGCATG | 1 ± 0.042 |
| ATTAGGTCGG | 0.979 ± 0.023 |
| ATTAGGTTAT | 1 ± 0.048 |
| ATTAGTAGGG | 0.9807 ± 0.0041 |
| ATTAGTGATG | 0.989 ± 0.016 |
| ATTAGTGTTC | 0.987 ± 0.043 |

| Sequence | switch fluorescence ratio |
| --- | --- |
| ATTAGTGTTG | 0.956 ± 0.022 |
| ATTAGTGTTT | 0.976 ± 0.027 |
| ATTAGTTGGG | 1.0052 ± 0.00057 |
| ATTAGTTTTT | 0.9731 ± 0.0076 |
| ATTATAAAAC | 1.03 ± 0.045 |
| ATTATAAAAG | 0.989 ± 0.012 |
| ATTATAGCGG | 0.9984 ± 0.0073 |
| ATTATAGGG | 1 ± 0.015 |
| ATTATAGTGG | 1.04 ± 0.02 |
| ATTATAGTTT | 1.03 ± 0.049 |
| ATTATATAGC | 0.996 ± 0.031 |
| ATTATCAGCG | 1.01 ± 0.019 |
| ATTATCATGT | 1 ± 0.074 |
| ATTATCCAGC | 1.01 ± 0.017 |
| ATTATCTGCG | 1 ± 0.011 |
| ATTATCTGTG | 0.97 ± 0.039 |
| ATTATCTTCT | 0.994 ± 0.061 |
| ATTATGAAAG | 0.969 ± 0.056 |
| ATTATGCCG | 0.993 ± 0.06 |
| ATTATGGTAA | 1 ± 0.018 |
| ATTATGTATC | 0.996 ± 0.011 |
| ATTATTAGCT | 0.996 ± 0.012 |
| ATTATTGGTT | 1.02 ± 0.029 |
| ATTATTGTGT | 0.9903 ± 0.0075 |
| ATTATTTTGC | 0.9464 ± 0.0026 |
